The source of these data is the supplement of paper PMC12783771.

± gives the standard deviation of the averaged measurements.

First the molecules themselves.
B1: library; a variant is named by its letters at X, in order (parent)
chain: MNIQIGELAKRTACPVVTIRFYEQEGLLPPPGRSRGNFRLYGEEHVERLQFIRHCRSLDMPLSDVRTLLSYRKRPDQDCGEVXMLLDEHIRQVESRIGALLELKHHLVELREACSGARPAQSCGILQXLSXCVCXTRGTTAHXSD

In data set [1] the parent is B1. As to the kind of experiment: sfGFP reporter fluorescence (15 h) (µM FITC); higher = higher leak. To be noted: library round: Round 2; ligand: none. The procedure:
(§1)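 Cell-free biosensing: 1 µL Echo-assembled CFE reactions with linear PbrR variant templates (5 nM) and pPbrR-sfGFP reporter, with 1 µM Pb, 30 µM Zn or no ligand; endpoint sfGFP fluorescence after 15 h at 30 °C calibrated as µM FITC. Round 2 ML-predicted PbrR mutants; up to 3 biological replicates.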

Variants of B1 are the subject of data set [2]. As to the kind of experiment: sfGFP reporter fluorescence (15 h) (µM FITC); higher = stronger transcriptional activation. To be noted: library round: Round 2. As for the experimental part: as §1

For MNIQIGELAKRTACPVVTIRFYEQEGLLPPPGRSRGNFRLYGEEHVERLQFIRHCRSLDMPLSDVRTLLSYRKRPDQDCGEITMLLDEHIRQVESRIGALLELKHHLVELREACSGARPAQSCGILQGISDCVCDTRGTTAHYSD [TGDDY V82I L129I], the sfGFP reporter fluorescence is 0.0454 ± 0.0012 in data set [1], 0.0463 ± 0.00051 in data set [2] (ligand: 1 µM Pb) and 0.0601 ± 0.013 in data set [2] (ligand: 30 µM Zn).
On the same counts, the results for MNIQIGELAKRTACPVVTIRFYEQEGLLPPPGRSRGNFRLYGEEHVERLQFIRHCRSLDMPLSTVRTLLSYRKRPDQDCGEVNMLLDEHIRQVESRIGALLELKHHLVELREACSGARPAQSCGILGGLSDCVCATRGTTAHPSD [NGDAP D64T Q127G] are 0.0728 ± 0.0058, 0.121 ± 0.013 and 1.87 ± 0.15.
On the same counts, the results for MNIQIGELAKRTACPVVTIRFYEQEGLLPPPGRSRGNFRLYGEEHVERLQFIRHCRSLDMPLSDVRTLLSYRKRPDQDCGEVNMLLDEHIRQVESRIGALLELKHHLVELREACSGARPAQSCGILQGLSACACDTRGTTAHYSD [NGADY V133A] are 0.0753 ± 0.0056, 0.124 ± 0.0081 and 1.15 ± 0.1.
In the same order, the values of MNIQIGELAKRTACPVVTIRFYEQEGLLPPPGRSRGNFRLYGEEHVERLQFIRHCRSLDMPLSDVRTLLSYRKRPDQDCGEVTMLLDEHIRQVESRIGALLELKHHLVELREACSGARPAQSCGILQGLSACVCYTRGTTAHCSD [TGAYC] are 0.05432 ± 0.00051, 0.085 ± 0.0051 and 0.699 ± 0.064.
With MNIQIGELAKRTACPVVTIRFYEQEGLLPPPGRSRGNFRLYGEEHVERLQFIRHCRSLDMPLSDVRTLLSYRKRPDQDCGEVNMILDEHIRQVESRIGALLELKHHLVELREACSGARPAQSCGILQGLSDCVCATRGTTAHTSD [NGDAT L85I], the sfGFP reporter fluorescence in data set [1] was 0.0427 ± 0.0024; in data set [2] (ligand: 1 µM Pb), 0.0595 ± 0.0027; in data set [2] (ligand: 30 µM Zn), 0.809 ± 0.019.
In the same order, the values of MNIQIGELAKRTACPVVTIRFYEQEGLLPPPGRSRGNFRLYGEEHVERLQFIRHCRSLDMPLSDVRTLLSYRKRPDQDCGEVNMLLDEHIRQVESRIGALLELKHHCVELREACSGARPAQSCGILQTLSDCVCATRGTTAHPSD [NTDAP L107C] are 0.819 ± 0.064, 1.7 ± 0.12 and 3.23 ± 0.041.
In the same order, the values of MNIQIGELAKRTACPVVTIRFYEQEGLLPPPGRSRGNFRLYGEEHVERLQFIRHCRSLDMPLSDVRTLLSYRKRPDQDCGEVSMYLDEHIRQVESRIGALLELVHHLVELREACSGARPAQSCGILQGLSDCVCDTRGTTAHPSD [SGDDP L85Y K104V] are 0.0628 ± 0.0056, 0.0671 ± 0.0055 and 0.248 ± 0.027.
On the same counts, the results for MNIQIGELAKRTACPVVTIRFYEQEGLLPPPGRSRGNFRLYGEEHVERLQFIRHCRSLDMPLSDVRTLLSYRKRPDQDCGEVNMLLDEHLRQVESRIGALLELVHHCVELREACSGARPAQSCGILQILSDCVCDTRGTTAHPSD [NIDDP I90L K104V L107C] are 0.0665 ± 0.003, 0.0702 ± 0.0034 and 0.178 ± 0.014.
Regarding MNIQIGELAKRTACPVVTIRFYEQEGLLPPPGRSRGNFRLYGEEHVERLQFIRHCRSLDMPLSDVRTLLSYRKRPDQDCGEVIMLLDEHIRQVESRIGALLELVHALVELREACSGARPAQSCGILQGLSDCVCDTRGTTAHRSD [IGDDR K104V H106A], the results for the sfGFP reporter fluorescence in data set [1], in data set [2] (ligand: 1 µM Pb) and in data set [2] (ligand: 30 µM Zn) were 0.0522 ± 0.00085, 0.136 ± 0.0052 and 0.0496 ± 0.0028, respectively.
On the same counts, the results for MNIQIGELAKRTACPVVTIRFYEQEGLLPPPGRSRGNFRLYGEEHVERLQFIRHCRSLDMNLSKVRTLLSYRKRPDQDCGEVNMLLDEHIRQVESRIGALLELKHHCVELREACSGARPAQSCGILQTLSDCVCDTRGTTAHPSD [NTDDP P61N D64K L107C] are 2.26 ± 0.67, 2.58 ± 0.67 and 3.04 ± 0.32.
As for MNIQIGELAKRTACPVVTIRFYEQEGLLPPPGRSRGNFRLYGEEHVERLQFIRHCRSLDMPLSDVRTLLSYRKRPDQDCGEVTMLLDEHIRQVESRIGALLELKHHLVELREACSGARPAQSCGILQGLSDCVCRTRGTTAHWSD [TGDRW], the sfGFP reporter fluorescence is 0.0495 ± 0.00078 in data set [1], 0.0726 ± 0.0038 in data set [2] (ligand: 1 µM Pb) and 0.205 ± 0.014 in data set [2] (ligand: 30 µM Zn).
In the same order, the values of MNIQIGELAKRTACPVVTIRFYEQEGLLPPPGRSRGNFRLYGEEHVERLQFIRHCRSLDMPLSDVRTLLSYRKRPDQDCGEVSMLLDEHIRQVESRIGALLELKHHLVELREACSGARPAQSCGILQGLSSCVCPTRGTTAHPSD [SGSPP] are 0.0484 ± 0.0013, 0.123 ± 0.0072 and 0.394 ± 0.023.
In the case of MNIQIGELAKRTACPVVTIRFYEQEGLLPPPGRSRGNFRLYGEEHVERLQFIRHCRSLDMPLSDVRTLLSYRKRPDQDCGEVTMLLDEHIRQVESRIGALLELKHHLVELREACSGARPAASCGILQGLSSCVCDTRGTTAHYSD [TGSDY Q121A], the sfGFP reporter fluorescence in data set [1] came to 0.0567 ± 0.0051; in data set [2] (ligand: 1 µM Pb), 0.0961 ± 0.0073; in data set [2] (ligand: 30 µM Zn), 0.443 ± 0.056.
As for MNIQIGELAKRTACPVVTIRFYEQEGLLPPPGRSRGNFRLYGEEHVERLQFIRHCRSLDMNLSKVRTLLSYRKRPDQDCGEVNMLLDEHIRQVESRIGALLELKHHLMELREACSGARPAQSCGILQGLSDCVCDTRGTTAHPSD [NGDDP P61N D64K V108M], the sfGFP reporter fluorescence in data set [1] stood at 0.154 ± 0.014; in data set [2] (ligand: 1 µM Pb), 0.461 ± 0.026; in data set [2] (ligand: 30 µM Zn), 2.33 ± 0.24.
